Test results: the Immune Epitope Database (IEDB)

Tests used:
HLA-A*32:01 = experiment: IEDB peptide-MHC binding, purified MHC/competitive/radioactivity; filed as Kd, often an IC50 or EC50 that approximates it; ≥ and ≤ were set here for values at or beyond the usual limits of such assays
HLA-A*30:02 = experiment: as above
HLA-A*29:02 = experiment: as above
HLA-A*30:01 = experiment: as above
HLA-A*01:01 [1] = experiment: as above
HLA-A*26:01 [2] = experiment: as above
HLA-A*24:02 = experiment: as above
HLA-A*23:01 = experiment: as above
HLA-A*69:01 = experiment: IEDB peptide-MHC binding, purified MHC/direct/fluorescence; filed as Kd, often an IC50 or EC50 that approximates it; ≥ and ≤ were set here for values at or beyond the usual limits of such assays; details: source organism: Brucella suis
HLA-B*58:01 = experiment: as above; details: source organism: Brucella suis
HLA-B*44:02 = experiment: as above; details: source organism: Brucella suis
HLA-A*03:01 = experiment: as above; details: source organism: Brucella suis
HLA-B*40:01 = experiment: as above; details: source organism: Brucella suis
HLA-A*11:01 = experiment: as above; details: source organism: Brucella suis
HLA-B*08:01 = experiment: as above; details: source organism: Brucella suis
HLA-B*07:02 = experiment: as above; details: source organism: Brucella suis
HLA-A*01:01 [3] = experiment: as above; details: source organism: Brucella suis
HLA-B*15:01 = experiment: as above; details: source organism: Brucella suis
HLA-A*02:01 = experiment: as above; details: source organism: Brucella suis
HLA-B*27:05 = experiment: as above; details: source organism: Brucella suis
HLA-A*26:01 [4] = experiment: as above; details: source organism: Brucella suis
HLA-A*31:01 = experiment: as above; details: source organism: Brucella suis
HLA-B*18:01 = experiment: as above; details: source organism: West Nile virus
[5] = source organism: Vaccinia virus Copenhagen
[6] = source organism: Mammarenavirus guanaritoense
[7] = source organism: Mammarenavirus brazilense
[8] = source organism: SARS coronavirus Tor2
[9] = source organism: Dengue virus 1 Brazil/97-11/1997
[10] = source organism: Lymphocytic choriomeningitis virus (strain Armstrong)

AQDFQSLTI
Kd (HLA-A*32:01; [5]): 67.6 nM

CSKILDLCY
Kd (HLA-A*32:01; [6]): ≥ 50900 nM | Kd (HLA-A*30:02; [6]): 664 nM | Kd (HLA-A*29:02; [6]): 3620 nM | Kd (HLA-A*30:01; [6]): 14900 nM | Kd (HLA-A*01:01 [1]; [6]): 53.1 nM | Kd (HLA-A*26:01 [2]; [6]): ≥ 54600 nM

DEALRGFLLY
Kd (HLA-A*30:02; [7]): ≥ 69700 nM | Kd (HLA-A*29:02; [7]): ≥ 59100 nM | Kd (HLA-A*24:02; [7]): ≥ 37500 nM | Kd (HLA-A*01:01 [1]; [7]): 14800 nM | Kd (HLA-A*23:01; [7]): 5860 nM | Kd (HLA-A*26:01 [2]; [7]): ≥ 69700 nM

DEEPMELDY
Kd (HLA-A*30:02; [8]): ≥ 42000 nM | Kd (HLA-A*29:02; [8]): 1130 nM | Kd (HLA-A*24:02; [8]): ≥ 77600 nM | Kd (HLA-A*01:01 [1]; [8]): 2000 nM | Kd (HLA-A*23:01; [8]): ≥ 59000 nM | Kd (HLA-A*26:01 [2]; [8]): ≥ 73600 nM

DHEFVDEFY
Kd (HLA-A*30:02; [8]): ≥ 22500 nM | Kd (HLA-A*29:02; [8]): 1170 nM | Kd (HLA-A*24:02; [8]): ≥ 77600 nM | Kd (HLA-A*01:01 [1]; [8]): 262 nM | Kd (HLA-A*23:01; [8]): ≥ 66200 nM | Kd (HLA-A*26:01 [2]; [8]): 13900 nM

DTVWEVQGY
Kd (HLA-A*30:02; [8]): 1320 nM | Kd (HLA-A*29:02; [8]): 4250 nM | Kd (HLA-A*24:02; [8]): ≥ 77600 nM | Kd (HLA-A*01:01 [1]; [8]): 8020 nM | Kd (HLA-A*23:01; [8]): ≥ 77800 nM | Kd (HLA-A*26:01 [2]; [8]): 1.64 nM

DVIGNDRQE
Kd (HLA-A*69:01): ≥ 20000 nM | Kd (HLA-B*58:01): ≥ 20000 nM | Kd (HLA-B*44:02): ≥ 20000 nM | Kd (HLA-A*03:01): ≥ 20000 nM | Kd (HLA-B*40:01): ≥ 20000 nM | Kd (HLA-A*11:01): ≥ 20000 nM | Kd (HLA-B*08:01): ≥ 20000 nM | Kd (HLA-B*07:02): ≥ 20000 nM | Kd (HLA-A*01:01 [3]): ≥ 20000 nM | Kd (HLA-B*15:01): ≥ 20000 nM | Kd (HLA-A*02:01): ≥ 20000 nM | Kd (HLA-B*27:05): ≥ 20000 nM | Kd (HLA-A*26:01 [4]): ≥ 20000 nM | Kd (HLA-A*31:01): ≥ 20000 nM

ELLNTPYCNY
Kd (HLA-A*32:01; [7]): ≥ 39900 nM | Kd (HLA-A*30:02; [7]): 206 nM | Kd (HLA-A*29:02; [7]): 837 nM | Kd (HLA-A*30:01; [7]): ≥ 70400 nM | Kd (HLA-A*01:01 [1]; [7]): 12300 nM | Kd (HLA-A*26:01 [2]; [7]): 275 nM

EMVMCGGSLY
Kd (HLA-A*30:02; [8]): 38.1 nM | Kd (HLA-A*29:02; [8]): 13.9 nM | Kd (HLA-A*24:02; [8]): ≥ 70300 nM | Kd (HLA-A*01:01 [1]; [8]): 468 nM | Kd (HLA-A*23:01; [8]): ≥ 70000 nM | Kd (HLA-A*26:01 [2]; [8]): 19.9 nM

EYADVFHLY
Kd (HLA-A*30:02; [8]): 10.8 nM | Kd (HLA-A*29:02; [8]): 48.8 nM | Kd (HLA-A*24:02; [8]): 784 nM | Kd (HLA-A*01:01 [1]; [8]): ≥ 26200 nM | Kd (HLA-A*23:01; [8]): 176 nM | Kd (HLA-A*26:01 [2]; [8]): 27.7 nM

FFQDIPIFF
Kd (HLA-A*29:02; [6]): 0.08 nM | Kd (HLA-A*24:02; [6]): 159 nM | Kd (HLA-A*23:01; [6]): 10.3 nM

GSAKLQWFVE
Kd (HLA-A*32:01; source organism: Dengue virus 3 Martinique/1243/1999): ≥ 69900 nM

GYLKPTTFML
Kd (HLA-A*30:02; [8]): 5130 nM | Kd (HLA-A*29:02; [8]): 1020 nM | Kd (HLA-A*24:02; [8]): 103 nM | Kd (HLA-A*01:01 [1]; [8]): ≥ 28400 nM | Kd (HLA-A*23:01; [8]): 33.6 nM | Kd (HLA-A*26:01 [2]; [8]): ≥ 69700 nM

IRWYISLSF
Kd (HLA-A*32:01; [5]): 1170 nM

ITANPIVTD
Kd (HLA-A*32:01; [9]): 2420 nM

KENGVDLSV
Kd (HLA-B*18:01): 5220 nM

KTIYLLSLF
Kd (HLA-A*32:01; source organism: Vaccinia virus WR): 10.3 nM

KVINLSELL
Kd (HLA-A*29:02; [6]): 11900 nM | Kd (HLA-A*24:02; [6]): 17600 nM | Kd (HLA-A*23:01; [6]): 426 nM

KVNTTIARY
Kd (HLA-A*32:01; [10]): 634 nM | Kd (HLA-A*30:02; [10]): 5.93 nM | Kd (HLA-A*29:02; [10]): 100 nM | Kd (HLA-A*30:01; [10]): 934 nM | Kd (HLA-A*01:01 [1]; [10]): 1630 nM | Kd (HLA-A*26:01 [2]; [10]): 7460 nM

LSHLSLGLI
Kd (HLA-A*29:02; [7]): 9100 nM | Kd (HLA-A*24:02; [7]): ≥ 21000 nM | Kd (HLA-A*23:01; [7]): 7760 nM

LWTTLLSLTF
Kd (HLA-A*24:02; [9]): 14.3 nM | Kd (HLA-A*23:01; [9]): 20.6 nM
